Results: article PMC8650744

Biological target: HIV-1 Matrix (MA) WT (HIV-1, UniProt C1JB69 1-131)
Experiment: ITC

B1: tRNALys3 A7U/U66A (structured_RNA)
RNA: GCCCGGUUAGCUCAGUCGGUAGAGCAUCAGACUUUUAAUCUGAGGGUCCAGGGUUCAAGUCCCUGAUCGGGCGCCA
- binding signal: 2 fold Kd increase vs WT tRNA
